Measurements: patent US20210340249A1, “MUSCARINIC ACETYLCHOLINE RECEPTOR BINDING AGENTS AND USES THEREOF” (VIB VZW, priority 2013, published 2021)
“Also recorded” adds a separate entry of the source. One block for each molecule: values may come before it.

Molecular target: T1, human M2 muscarinic receptor (Homo sapiens, UniProt P08172, DEL233-374/N2D/N3D/N6D/N9D)
T1 construct: FLAG (N); 8xHis (C); made in house; host or cells: Sf9 insect cells, BestBac baculovirus system
T1 sequence (P08172 with tags, fused parts or gaps N2D/N3D/N6D/N9D/DEL233-374): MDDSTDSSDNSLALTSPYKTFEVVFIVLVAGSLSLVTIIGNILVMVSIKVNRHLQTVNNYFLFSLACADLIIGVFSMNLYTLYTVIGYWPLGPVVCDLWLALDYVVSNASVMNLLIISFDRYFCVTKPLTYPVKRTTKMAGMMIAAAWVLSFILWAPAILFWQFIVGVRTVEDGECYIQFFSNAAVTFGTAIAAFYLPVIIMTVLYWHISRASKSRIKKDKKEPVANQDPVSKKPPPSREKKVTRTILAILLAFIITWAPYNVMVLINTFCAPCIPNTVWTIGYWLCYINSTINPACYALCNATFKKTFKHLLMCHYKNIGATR
Experiment: M2 receptor radioligand binding assay (3H N-methyl scopolamine, receptor reconstituted into HDL particles)
Conditions: for enhancement of M2 receptor affinity for the agonist iperoxo: competition binding assay, iperoxo vs 3H N-methyl scopolamine, compared with G protein Gi
Text: M2 muscarinic receptor expression and purification. The human M2 muscarinic receptor gene was modified to remove glycosylation sites, and to add an amino-terminal FLAG tag and a carboxy-terminal 8×His tag. In addition, residues 233-374 of intracellular loop 3 were deleted. […] Human M2 muscarinic receptor bearing an amino-terminal FLAG epitope tag and carboxy-terminal 8×His tag was expressed in Sf9 cells using the BestBac baculovirus system (Expression Systems; Davis, Calif.). Cells were infected at a density of 4×10^6 cells/mL, then incubated for two days at 27° C. Receptor was extracted and purified in the manner described previously for the M3 muscarinic receptor (Kruse et al., 2012). Briefly, receptor was first purified by Ni-NTA chromatography, FLAG affinity chromatography, then size exclusion chromatography. 1 μM atropine was included in all buffers. Receptor was then labeled with a 5-fold molar excess of biotin-NHS ester (Sigma-Aldrich; St. Louis, Mo.) in buffer containing 25 mM HEPES pH 7.2. Following a 30 minute incubation at room temperature and a 30 minute incubation on ice, unreacted label was quenched with 50 mM Tris pH 8. Directly labeled samples with fluorophore-NHS esters were prepared similarly. Receptor was then desalted into buffer containing either 10 μM tiotropium, 10 μM iperoxo, or buffer containing no ligand. Receptor eluted in buffer containing no ligand was treated with 50 μM iperoxo mustard (derivative of iperoxo that allows covalent binding to M2 receptor) for 20 minutes at room temperature. Samples were then concentrated, aliquoted, and flash frozen with 20% (v/v) glycerol.
M2 receptor radioligand binding assays. M2 receptor was expressed and purified, as described above. Receptor was then reconstituted into HDL particles consisting of apolipoprotein A1 and a 3:2 (mol:mol) mixture of the lipids POPC:POPG (1-palmitoyl-2-oleoyl-sn-glycero-3-phosphocholine: 1-palmitoyl-2-oleoyl-sn-glycero-3-phosphocholine and 1-hexadecanoyl-2-(9Z-octadecenoyl)-sn-glycero-3-phospho-(r-rac-glycerol), respectively, Avanti Polar Lipids). Binding reactions contained 50 fmol functional receptor, 0.6 nM 3H N-methyl scopolamine (NMS), 100 mM NaCl, 20 mM HEPES pH 7.5, 0.1% BSA, and ligands and nanobodies as indicated. Single point allosteric effects of nanobodies were measured in the presence of 10 nM iperoxo. Concentration-dependent effects of nanobodies were measured in the presence of 10 nM iperoxo. All reactions were 500 μL in volume. Reactions were mixed and then incubated for two hours. Samples were then filtered on a 48-well harvester (Brandel) onto a filter which had been pretreated with 0.1% polyethylenimine. All measurements were taken by liquid scintillation counting, and experiments were performed at least in triplicate.
To determine whether the Nanobody variants that specifically stain agonist-bound M2 receptor are able to stabilize the M2 receptor active state, a binding assay was performed. Due to the allosteric properties of GPCRs, molecules that stabilize the active conformation of a receptor also increase agonist affinity. Several conformationally specific binders were isolated and were tested for their ability to induce an increase in the affinity of the non-covalent agonist iperoxo.

B3: Nb9-1: Nanobody SEQ ID NO:2; M2 Gi mimetic (protein, listed as Lama glama)
VHH: QVQLQESGGGLVQAGGSLRLSCAASGHTFSSARMYWVRQAPGKEREFVAAISRSGFTYSADSVKGRFTISRDIANNTVYLQMNSLQPEDTAIYTCYAAYLDEFYNDYTHYWGLGTQVTVSS
- enhancement of M2 receptor affinity for the agonist iperoxo: confirmed to enhance agonist affinity

B4: clone B4: Nanobody SEQ ID NO:16; functional extracellular M2 nanobody ligand (protein, listed as Lama glama)
VHH: QVQLQESGGGLVQAGGSLRLSCAASGRTFSNYAMSWFRQAPGKERGLVATIYRSGEGTYYLPSAKGRFTVSRDNAKNTAYLQMNSLKAEDTAVYYCAVMSRGTWSMWGQGTQVTVSS
- effect on binding of the radioligand N-methylscopolamine (allosteric binding properties) (single point, with and without agonist (10 nM iperoxo)): decrease in the binding of the radioligand N-methylscopolamine only in the presence of agonist

More lines, main results first:

- enhancement of M2 receptor affinity for the agonist iperoxo: confirmed to enhance agonist affinity
B1: Nb9-20: Nanobody SEQ ID NO:11; M2 Gi mimetic (protein, listed as Lama glama)
VHH: QVQLQESGGGLVQPEGSLTLACDTSGFTMNYYAIAWFRQAPEKEREGLATISSIDGRTYYADSVKGRFTISRDSAKNMVYLQMNNLRPEDTAVYYCSAGPDYSDYGDESEYWGQGTQVTVSS

- EC50 (concentration-dependent effect of nanobody in the presence of 10 nM iperoxo, 0.6 nM 3H N-methyl scopolamine, read-out: EC50 of nanobody effect on agonist ability to displace a radioactive probe): ~100 nM
- dose-dependent effect on agonist ability to displace a radioactive probe (in the presence of 10 nM iperoxo, 3H N-methyl scopolamine): dose-dependent effect
B2: Nb9-8: Nanobody SEQ ID NO:1; M2 Gi mimetic, active-state stabilizing, binds intracellular surface of M2 receptor (protein, listed as Lama glama)
VHH: QVQLQESGGGLVQAGDSLRLSCAASGFDFDNFDDYAIGWFRQAPGQEREGVSCIDPSDGSTIYADSAKGRFTISSDNAENTVYLQMNSLKPEDTAVYVCSAWTLFHSDEYWGQGTQVTVSS
- enhancement of M2 receptor affinity for the agonist iperoxo: confirmed to enhance agonist affinity; also recorded: enhanced the affinity of the M2 receptor for iperoxo to almost the same extent as that observed in the presence of the heterotrimeric G protein Gi; also recorded: substantial enhancement of iperoxo affinity
